Substrate in data set [1]: O=C(NO)c1ccc(Cn2c(=O)n(CCc3ccccc3)c(=O)c3cccnc32)cc1
To be noted: Homo sapiens; Sf9.
Description: (§1) Inhibition of human full-length recombinant HDAC6 expressed in baculovirus infected Sf9 insect cells assessed as substrate Km using Boc-Lys (Ac)-AMC as substrate preincubated for 10 mins followed by substrate addition and measured after 30 mins by fluorescence assay

Substrate in data set [2]: COc1ccccc1CCn1c(=O)c2ccccc2n(Cc2ccc(C(=O)NO)cc2)c1=O
To be noted: Homo sapiens; Sf9.
Description: as §1

Substrate in data set [3]: CN1CCc2c(c3ccccc3n2Cc2ccc(C(=O)NO)cc2)C1
Conditions: Homo sapiens; Sf9.
Description: as §1

Substrate in data set [4]: O=C(NO)c1ccc(Cn2c(=O)n(CCc3ccccc3)c(=O)c3ccccc32)cc1
To be noted: Homo sapiens.
Description: Competitive inhibition of human HDAC6 CD2 expressed in Escherichia coli BL21 (RIL) assessed as substrate Km using Boc-Lys (Ac)-AMC as substrate preincubated for 10 mins followed by substrate addition and measured after 30 mins by fluorescence assay

Substrate in data set [5]: O=C(NO)c1ccc(Cn2c(=O)n(CCc3ccccc3)c(=O)c3ccccc32)cc1
To be noted: Homo sapiens; Sf9.
Description: Competitive inhibition of human full-length recombinant HDAC6 expressed in baculovirus infected Sf9 insect cells assessed as substrate Km using Boc-Lys (Ac)-AMC as substrate preincubated for 10 mins followed by substrate addition and measured after 30 mins by fluorescence assay

Substrate in data set [6]: O=C(NO)c1ccc(Cn2c(=O)n(CCc3ccccc3)c(=O)c3cccnc32)cc1
To be noted: Homo sapiens.
Description: (§2) Inhibition of human HDAC6 CD2 expressed in Escherichia coli BL21 (RIL) assessed as substrate Km using Boc-Lys (Ac)-AMC as substrate preincubated for 10 mins followed by substrate addition and measured after 30 mins by fluorescence assay

Substrate in data set [7]: COc1ccccc1CCn1c(=O)c2ccccc2n(Cc2ccc(C(=O)NO)cc2)c1=O
Conditions: Homo sapiens.
Description: as §2

Here are results for one protein from ChEMBL document CHEMBL4330076, “Quinazolin-2,4-dione-Based Hydroxamic Acids as Selective Histone Deacetylase-6 Inhibitors for Treatment of Non-Small Cell Lung Cancer” (J Med Chem, 2019).

The term Km denotes the concentration of substrate that gives half-maximal velocity.

B1: Protein deacetylase HDAC6 (Homo sapiens), Q9UBN7 (protein)
chain: MTSTGQDSTTTRQRRSRQNPQSPPQDSSVTSKRNIKKGAVPRSIPNLAEVKKKGKMKKLGQAMEEDLIVGLQGMDLNLEAEALAGTGLVLDEQLNEFHCLWDDSFPEGPERLHAIKEQLIQEGLLDRCVSFQARFAEKEELMLVHSLEYIDLMETTQYMNEGELRVLADTYDSVYLHPNSYSCACLASGSVLRLVDAVLGAEIRNGMAIIRPPGHHAQHSLMDGYCMFNHVAVAARYAQQKHRIRRVLIVDWDVHHGQGTQFTFDQDPSVLYFSIHRYEQGRFWPHLKASNWSTTGFGQGQGYTINVPWNQVGMRDADYIAAFLHVLLPVALEFQPQLVLVAAGFDALQGDPKGEMAATPAGFAQLTHLLMGLAGGKLILSLEGGYNLRALAEGVSASLHTLLGDPCPMLESPGAPCRSAQASVSCALEALEPFWEVLVRSTETVERDNMEEDNVEESEEEGPWEPPVLPILTWPVLQSRTGLVYDQNMMNHCNLWDSHHPEVPQRILRIMCRLEELGLAGRCLTLTPRPATEAELLTCHSAEYVGHLRATEKMKTRELHRESSNFDSIYICPSTFACAQLATGAACRLVEAVLSGEVLNGAAVVRPPGHHAEQDAACGFCFFNSVAVAARHAQTISGHALRILIVDWDVHHGNGTQHMFEDDPSVLYVSLHRYDHGTFFPMGDEGASSQIGRAAGTGFTVNVAWNGPRMGDADYLAAWHRLVLPIAYEFNPELVLVSAGFDAARGDPLGGCQVSPEGYAHLTHLLMGLASGRIILILEGGYNLTSISESMAACTRSLLGDPPPLLTLPRPPLSGALASITETIQVHRRYWRSLRVMKVEDREGPSSSKLVTKKAPQPAKPRLAERMTTREKKVLEAGMGKVTSASFGEESTPGQTNSETAVVALTQDQPSEAATGGATLAQTISEAAIGGAMLGQTTSEEAVGGATPDQTTSEETVGGAILDQTTSEDAVGGATLGQTTSEEAVGGATLAQTTSEAAMEGATLDQTTSEEAPGGTELIQTPLASSTDHQTPPTSPVQGTTPQISPSTLIGSLRTLELGSESQGASESQAPGEENLLGEAAGGQDMADSMLMQGSRGLTDQAIFYAVTPLPWCPHLVAVCPIPAAGLDVTQPCGDCGTIQENWVCLSCYQVYCGRYINGHMLQHHGNSGHPLVLSYIDLSAWCYYCQAYVHHQALLDVKNIAHQNKFGEDMPHPH
Take B1: the Michaelis-Menten constant (Km) in data set [1] stood at 21.8 µM; in data set [2], 34.6 µM; in data set [3] it was 29.1 µM; in data set [4], 29.8 µM; in data set [5], 16.7 µM; in data set [6], 35.3 µM. The Michaelis constant (Km) in data set [7] stood at 32.5 µM.
